Results taken from article doi:10.1101/2020.01.06.896332 (bioRxiv, 2020).
“And” between values parts separate entries of the source, which are not always exact repeats. Identical values can stand only once.

Molecular target: the molecule itself
Test: SEC

B1: human diacylglycerol O-acyltransferase-1 (enzyme, UniProt O75907 1-488, looked up)
chain: MGDRGSSRRRRTGSRPSSHGGGGPAAAEEEVRDAAAGPDVGAAGDAPAPAPNKDGDAGVGSGHWELRCHRLQDSLFSSDSGFSNYRGILNWCVVMLILSNARLFLENLIKYGILVDPIQVVSLFLKDPYSWPAPCLVIAANVFAVAAFQVEKRLAVGALTEQAGLLLHVANLATILCFPAAVVLLVESITPVGSLLALMAHTILFLKLFSYRDVNSWCRRARAKAASAGKKASSAAAPHTVSYPDNLTYRDLYYFLFAPTLCYELNFPRSPRIRKRFLLRRILEMLFFTQLQVGLIQQWMVPTIQNSMKPFKDMDYSRIIERLLKLAVPNHLIWLIFFYWLFHSCLNAVAELMQFGDREFYRDWWNSESVTYFWQNWNIPVHKWCIRHFYKPMLRRGSSKWMARTGVFLASAFFHEYLVSVPLRMFRLWAFTGMMAQIPLAWFVGRFFQGNYGNAAVWLSLIIGQPIAVLMYVHDYYVLNYEAPAAEA
  stoichiometry N: 2 and 4
